Measurements from article PMC2628611.

Biological target: GST-DOC2b (wild type) (mouse) (UniProt P70169)
Assay: pull-down

Chain of UniProt P70169 (P70169 whole entry): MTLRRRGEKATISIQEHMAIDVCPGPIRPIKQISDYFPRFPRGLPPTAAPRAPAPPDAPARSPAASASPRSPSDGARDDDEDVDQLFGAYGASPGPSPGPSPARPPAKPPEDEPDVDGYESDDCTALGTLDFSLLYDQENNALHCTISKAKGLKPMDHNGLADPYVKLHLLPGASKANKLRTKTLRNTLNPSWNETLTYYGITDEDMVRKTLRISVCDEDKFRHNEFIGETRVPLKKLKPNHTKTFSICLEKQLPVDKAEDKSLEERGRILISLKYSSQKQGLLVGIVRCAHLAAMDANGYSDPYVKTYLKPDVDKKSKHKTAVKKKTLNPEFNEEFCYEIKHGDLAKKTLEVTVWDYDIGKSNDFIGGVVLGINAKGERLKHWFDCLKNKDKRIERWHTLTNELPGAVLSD

recombinant syntaxin-4 (cleaved from GST syntaxin-4) (from UniProt P70452 1-298) (natural protein)
percent of syntaxin-4 pulled down: 5%
